Numbering of substitutions follows the chain as printed. In names and notes the source's numbering stands.
T1: mouse PD-1 (mouse, UniProt Q02242 25-167, limits assumed)
T1 construct: also called mPD-1
T1 sequence (looked up): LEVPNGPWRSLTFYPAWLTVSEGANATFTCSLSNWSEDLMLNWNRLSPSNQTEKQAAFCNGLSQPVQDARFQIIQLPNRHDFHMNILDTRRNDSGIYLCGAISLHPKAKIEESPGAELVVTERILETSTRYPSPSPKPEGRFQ

B1: Fab-IL-12(WT)-Fc-CD8 Ab (other)
heavy 1: EVQLQQSGPELVKPGASVKMSCKASGYTFTDYYMKWVKQSHGKSLEWIGHINPNNDDTFYTQKFKGRATLTVDKSSSTAYMQLNSLTSEDSAVYYCVRDDYDGGWFAYWGQGTLVTVSSASTKGPSVFPLAPSSKSTSGGTAALGCLVKDYFPEPVTVSWNSGALTSGVHTFPAVLQSSGLYSLSSVVTVPSSSLGTQTYICNVNHKPSNTKVDKKVEPKSCDKPGSGIWELKKDVYVVELDWYPDAPGEMVVLTCDTPEEDGITWTLDQSSEVLGSGKTLTIQVKEFGDAGQYTCHKGGEVLSHSLLLLHKKEDGIWSTDILKDQKEPKNKTFLRCEAKNYSGRFTCWWLTTISTDLTFSVKSSRGSSDPQGVTCGAATLSAERVRGDNKEYEYSVECQEDSACPAAEESLPIEVMVDAVHKLKYENYTSSFFIRDIIKPDPPKNLQLKPLKNSRQVEVSWEYPDTWSTPHSYFSLTFCVQVQGKSKREKKDRVFTDKTSATVICRKNASISVRAQDRYYSSSWSEWASVPCSGGGGSGGGGSGGGGSGGGGSGRNLPVATPDPGMFPCLHHSQNLLRAVSNMLQKARQTLEFYPCTSEEIDHEDITKDKTSTVEACLPLELTKNESCLNSRETSFITNGSCLASRKTSFMMALCLSSIYEDLKMYQVEFKTMNAKLLMDPKRQIFLDQNMLAVIDELMQALNFNSETVPQKSSLEEPDFYKTKIKLCILLHAFRIRAVTIDRVMSYLNASDKTHTCPPCPAPEDEGGPSVFLFPPKPKDTLMISRTPEVTCVVVDVSHEDPEVKFNWYVDGVEVHNAKTKPREEQYNSTYRVVSVLTVLHQDWLNGKEYKCKVSNKALPAPIEKTISKAKGQPREPQVYVYPPSREEMTKNQVSLTCLVKGFYPSDIAVEWESNGQPENNYKTTPPVLDEDGSFALVSKLTVDKSRWQQGNVFSCSVMHEALHNHYTQKSLSLSPGK
heavy 2: EVQLQQSGPELVKPGASVKMSCKASGYTFTDYYMKWVKQSHGKSLEWIGHINPNNDDTFYTQKFKGRATLTVDKSSSTAYMQLNSLTSEDSAVYYCVRDDYDGGWFAYWGQGTLVTVSSASTKGPSVFPLAPSSKSTSGGTAALGCLVKDYFPEPVTVSWNSGALTSGVHTFPAVLQSSGLYSLSSVVTVPSSSLGTQTYICNVNHKPSNTKVDKKVEPKSCDKTHTCPPCPAPEKKGGPSVFLFPPKPKDTLMISRTPEVTCVVVDVSHEDPEVKFNWYVDGVEVHNAKTKPREEQYNSTYRVVSVLTVLHQDWLNGKEYKCKVSNKALPAPIEKTISKAKGQPREPQVYVLPPSREEMTKNQVSLLCLVKGFYPSDIAVEWESNGQPENRYMTWPPVLDSDGSFFLYSKLTVDKSRWQQGNVFSCSVMHEALHNHYTQKSLSLSPGK
light: DIQMTQTTSSLSASLGDRVTISCRASQDINNYLNWYQQKSDGTIKLLIYYTSRSYSGVPSRFSGSGSGTDYSLTISNRRQEDIATYFCQQGKTLPWTFGGGTKLEIKRTVAAPSVFIFPPSDEQLKSGTASVVCLLNNFYPREAKVQWKVDNALQSGNSQESVTEQDSKDSTYSLSSTLTLSKADYEKHKVYACEVTHQGLSSPVTKSFNRGEC
B2: Fab-IL-12(F60A)-Fc-CD8 Ab (other)
heavy 1: B1 heavy 1 with F288A
heavy 2: B1 heavy 2
light: B1 light
B3: Fab-IL-12(E59A)-Fc-CD8 Ab (other)
heavy 1: B1 heavy 1 with E287A
heavy 2: B1 heavy 2
light: B1 light
B4: Fab-IL-12(E59A/F60A)-Fc-CD8 Ab (other)
heavy 1: B1 heavy 1 with E287A, F288A
heavy 2: B1 heavy 2
light: B1 light
B5: IL-12(E59A/F60A)/anti-PD-1(D100G) (other)
heavy 1: QVQLVESGGGVVQPGRSLRLDCKASGITFSNSGMHWVRQAPGKGLEWVAVIWYDGSKRYYADSVKGRFTISRDNSKNTLFLQMNSLRAEDTAVYYCATNGDYWGQGTLVTVSSASTKGPSVFPLAPSSKSTSGGTAALGCLVKDYFPEPVTVSWNSGALTSGVHTFPAVLQSSGLYSLSSVVTVPSSSLGTQTYICNVNHKPSNTKVDKKVEPKSCDKPGSGIWELKKDVYVVELDWYPDAPGEMVVLTCDTPEEDGITWTLDQSSEVLGSGKTLTIQVKAAGDAGQYTCHKGGEVLSHSLLLLHKKEDGIWSTDILKDQKEPKNKTFLRCEAKNYSGRFTCWWLTTISTDLTFSVKSSRGSSDPQGVTCGAATLSAERVRGDNKEYEYSVECQEDSACPAAEESLPIEVMVDAVHKLKYENYTSSFFIRDIIKPDPPKNLQLKPLKNSRQVEVSWEYPDTWSTPHSYFSLTFCVQVQGKSKREKKDRVFTDKTSATVICRKNASISVRAQDRYYSSSWSEWASVPCSGGGGSGGGGSGGGGSGGGGSGRNLPVATPDPGMFPCLHHSQNLLRAVSNMLQKARQTLEFYPCTSEEIDHEDITKDKTSTVEACLPLELTKNESCLNSRETSFITNGSCLASRKTSFMMALCLSSIYEDLKMYQVEFKTMNAKLLMDPKRQIFLDQNMLAVIDELMQALNFNSETVPQKSSLEEPDFYKTKIKLCILLHAFRIRAVTIDRVMSYLNASDKTHTCPPCPAPEDEGGPSVFLFPPKPKDTLMISRTPEVTCVVVDVSHEDPEVKFNWYVDGVEVHNAKTKPREEQYNSTYRVVSVLTVLHQDWLNGKEYKCKVSNKALPAPIEKTISKAKGQPREPQVYVYPPSREEMTKNQVSLTCLVKGFYPSDIAVEWESNGQPENNYKTTPPVLDEDGSFALVSKLTVDKSRWQQGNVFSCSVMHEALHNHYTQKSLSLSPGK
heavy 2: QVQLVESGGGVVQPGRSLRLDCKASGITFSNSGMHWVRQAPGKGLEWVAVIWYDGSKRYYADSVKGRFTISRDNSKNTLFLQMNSLRAEDTAVYYCATNGDYWGQGTLVTVSSASTKGPSVFPLAPSSKSTSGGTAALGCLVKDYFPEPVTVSWNSGALTSGVHTFPAVLQSSGLYSLSSVVTVPSSSLGTQTYICNVNHKPSNTKVDKKVEPKSCDKTHTCPPCPAPEKKGGPSVFLFPPKPKDTLMISRTPEVTCVVVDVSHEDPEVKFNWYVDGVEVHNAKTKPREEQYNSTYRVVSVLTVLHQDWLNGKEYKCKVSNKALPAPIEKTISKAKGQPREPQVYVLPPSREEMTKNQVSLLCLVKGFYPSDIAVEWESNGQPENRYMTWPPVLDSDGSFFLYSKLTVDKSRWQQGNVFSCSVMHEALHNHYTQKSLSLSPGK
light: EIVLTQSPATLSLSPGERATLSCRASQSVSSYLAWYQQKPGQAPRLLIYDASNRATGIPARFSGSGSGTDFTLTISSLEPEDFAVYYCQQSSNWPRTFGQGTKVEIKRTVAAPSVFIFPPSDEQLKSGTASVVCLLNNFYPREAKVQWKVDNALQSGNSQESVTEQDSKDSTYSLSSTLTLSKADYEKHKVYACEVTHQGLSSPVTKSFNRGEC
B6: IL-12(E59A/F60A)/anti-PD-1(D100R) (other)
heavy 1: B5 heavy 1 with G100R
heavy 2: B5 heavy 2 with G100R
light: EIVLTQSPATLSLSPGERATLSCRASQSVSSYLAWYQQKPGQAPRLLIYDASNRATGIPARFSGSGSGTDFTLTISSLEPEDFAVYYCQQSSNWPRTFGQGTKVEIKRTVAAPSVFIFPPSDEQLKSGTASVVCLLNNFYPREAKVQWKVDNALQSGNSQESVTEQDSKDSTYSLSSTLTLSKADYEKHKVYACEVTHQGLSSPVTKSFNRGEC
B7: IL-12(E59A/F60A)/anti-PD-1(D100N) (other)
heavy 1: B5 heavy 1 with G100N
heavy 2: B5 heavy 2 with G100N
light: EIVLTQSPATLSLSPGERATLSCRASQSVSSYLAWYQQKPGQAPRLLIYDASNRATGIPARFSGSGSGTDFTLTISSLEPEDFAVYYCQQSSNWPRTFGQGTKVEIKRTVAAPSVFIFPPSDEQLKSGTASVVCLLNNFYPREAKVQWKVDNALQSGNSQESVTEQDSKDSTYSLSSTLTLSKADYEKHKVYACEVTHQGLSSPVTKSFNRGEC
B8: PD-L2(wt)-Fc (Fc fusion)
chain 1: LFTVTVPKELYIIEHGSNVTLECNFDTGSHVNLGAITASLQKVENDTSPHRERATLLEEQLPLGKASFHIPQVQVRDEGQYQCIIIYGVAWDYKYLTLKVKASYRKINTHILKVPETDEVELTCQATGYPLAEVSWPNVSVPANTSHSRTPEGLYQVTSVLRLKPPPGRNFSCVFWNTHVRELTLASIDLQSQMEPRTHPTDKTHTCPPCPAPEDEGGPSVFLFPPKPKDTLMISRTPEVTCVVVDVSHEDPEVKFNWYVDGVEVHNAKTKPREEQYNSTYRVVSVLTVLHQDWLNGKEYKCKVSNKALPAPIEKTISKAKGQPREPQVYVYPPSREEMTKNQVSLTCLVKGFYPSDIAVEWESNGQPENNYKTTPPVLDEDGSFALVSKLTVDKSRWQQGNVFSCSVMHEALHNHYTQKSLSLSPGK
chain 2: B8 chain 1 with D215K, E216K, Y332L, T347L, N371R, K373M, T375W, E381S, A386F, V388Y
notes: also called None

Experiments:
[1] = molecular target: T2, human CD4 on cells (human, UniProt P01730 26-458); assay: FACS on CD4+ T cells
T2 construct: whole, on cells; also called CD4+ T cells; HEK-CD4-IFN-γ cells

[2] = molecular target: T3, human IL-12 receptor complex (human, UniProt P42701 24-662; Q99665 24-862); assay: cell-based or functional assay
T3 sequence (Q99665 24-862, chain 2 of 2, other chains not shown): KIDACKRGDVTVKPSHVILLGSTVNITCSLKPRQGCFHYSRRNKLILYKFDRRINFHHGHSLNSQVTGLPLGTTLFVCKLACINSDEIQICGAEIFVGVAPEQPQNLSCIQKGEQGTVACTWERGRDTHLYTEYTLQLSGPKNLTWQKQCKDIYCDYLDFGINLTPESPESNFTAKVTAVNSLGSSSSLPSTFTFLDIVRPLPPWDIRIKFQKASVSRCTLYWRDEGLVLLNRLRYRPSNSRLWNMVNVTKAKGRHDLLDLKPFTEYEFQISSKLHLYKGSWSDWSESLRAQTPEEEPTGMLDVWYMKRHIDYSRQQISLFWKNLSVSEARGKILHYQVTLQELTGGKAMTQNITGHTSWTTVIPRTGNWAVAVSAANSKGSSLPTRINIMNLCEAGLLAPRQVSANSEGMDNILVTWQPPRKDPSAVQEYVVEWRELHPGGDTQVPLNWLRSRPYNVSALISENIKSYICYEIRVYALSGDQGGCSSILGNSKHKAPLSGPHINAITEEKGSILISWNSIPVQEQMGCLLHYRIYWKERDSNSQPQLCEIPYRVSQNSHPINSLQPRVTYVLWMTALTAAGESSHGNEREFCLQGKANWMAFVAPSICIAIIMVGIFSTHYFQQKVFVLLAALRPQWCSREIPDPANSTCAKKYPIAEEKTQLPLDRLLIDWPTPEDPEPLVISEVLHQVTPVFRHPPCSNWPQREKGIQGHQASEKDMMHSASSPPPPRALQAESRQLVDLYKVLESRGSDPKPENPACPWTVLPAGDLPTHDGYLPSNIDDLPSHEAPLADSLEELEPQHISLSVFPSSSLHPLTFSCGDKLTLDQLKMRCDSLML

[3] = molecular target: T4, human PD-1 (human, UniProt Q15116 25-167, limits assumed); assay: Kd to PD-1 as printed for the construct in Table 19; method not told there; same value as for the parental anti-PD-1 antibody
T4 construct: nivolumab is called an anti-human PD-1 antibody; also called hPD-1
T4 sequence (Q15116 25-167 limits assumed): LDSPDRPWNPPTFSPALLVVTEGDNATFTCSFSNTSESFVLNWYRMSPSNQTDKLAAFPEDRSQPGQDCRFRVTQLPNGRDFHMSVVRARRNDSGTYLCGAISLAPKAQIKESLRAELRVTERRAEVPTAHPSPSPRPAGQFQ

[4] = molecular target: T3, human IL-12 receptor complex; assay: cell-based or functional assay; remark: listed apart in the source
[5] = molecular target: human PD-1 overexpressed on HEK-Blue reporter cells (human, UniProt Q15116 25-288); assay: cell-based or functional assay
Sequence of human PD-1 overexpressed on HEK-Blue reporter cells (Q15116 25-288): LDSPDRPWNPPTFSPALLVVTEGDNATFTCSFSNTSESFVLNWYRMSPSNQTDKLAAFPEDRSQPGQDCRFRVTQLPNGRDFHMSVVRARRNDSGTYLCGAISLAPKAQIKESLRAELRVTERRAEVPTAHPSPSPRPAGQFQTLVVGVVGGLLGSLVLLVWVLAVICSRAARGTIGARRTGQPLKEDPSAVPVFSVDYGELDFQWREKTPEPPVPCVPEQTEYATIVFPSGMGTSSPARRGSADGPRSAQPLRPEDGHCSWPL

[6] = molecular target: T4, human PD-1; assay: Kd column of Table 18; same value as the antibody in Table 17
[7] = molecular target: T4, human PD-1; assay: affinity measured in PD-L2-Fc format; method not named
[8] = molecular target: T1, mouse PD-1; assay: as above

Binder | binding result [1] | IFN-γ release, % of rIL-12, activated CD4+ T cells [2] [%] | Kd [3] [nM] | IL-12 signal transduction, % of rIL-12, HEK-IL-12 cells [4] [%] | IL-12 signal transduction, % of rIL-12, HEK-IL-12-PD-1 (high) [5] [%] | IL-12 signal transduction, % of rIL-12, HEK-IL-12-PD-1 (low) [5] [%] | Kd [6] [nM] | further results
B1 | no binding | 21 | – | – | – | – | – | –
B2 | no binding | 1.2 | – | – | – | – | – | –
B3 | no binding | 2.1 | – | – | – | – | – | –
B4 | no binding | 0 | – | – | – | – | – | –
B5 | – | – | 130 | < 0.2 | 33 | 17 | 130 | –
B6 | – | – | 910 | < 0.2 | 10 | 3 | 910 | –
B7 | – | – | 25 | < 0.2 | 38 | 33 | 25 | –
B8 | – | – | – | – | – | – | – | Kd [7]: 1200 nM; Kd [8]: 980 nM

From patent US20230167164A1 (IMMUNOWAKE, published 2023)
